Values belong to the substance of their own block, whether it stands above or below them.
Tests used:
[1] = target: T1, chimeric LIF receptor (human LIF receptor and human gp130 / mouse G-CSF receptor) in Ba/F3 cell line LIG (Homo sapiens, UniProt P40189+P42702); test: Growth response of chimeric LIF receptor-expressing Ba/F3 cell line LIG (WST-8); type: cell-based; settings: 72 hours culture, WST-8 absorbance
T1 construct: from the 1st to the 833rd amino acid residues; expressed in transfected cells; host or cells: mouse Ba/F3 cells co-transfected with pCV-cLIFR and pCV-cgp130, clone LIG#47 = LIG
T1 sequence (P42702 45-833): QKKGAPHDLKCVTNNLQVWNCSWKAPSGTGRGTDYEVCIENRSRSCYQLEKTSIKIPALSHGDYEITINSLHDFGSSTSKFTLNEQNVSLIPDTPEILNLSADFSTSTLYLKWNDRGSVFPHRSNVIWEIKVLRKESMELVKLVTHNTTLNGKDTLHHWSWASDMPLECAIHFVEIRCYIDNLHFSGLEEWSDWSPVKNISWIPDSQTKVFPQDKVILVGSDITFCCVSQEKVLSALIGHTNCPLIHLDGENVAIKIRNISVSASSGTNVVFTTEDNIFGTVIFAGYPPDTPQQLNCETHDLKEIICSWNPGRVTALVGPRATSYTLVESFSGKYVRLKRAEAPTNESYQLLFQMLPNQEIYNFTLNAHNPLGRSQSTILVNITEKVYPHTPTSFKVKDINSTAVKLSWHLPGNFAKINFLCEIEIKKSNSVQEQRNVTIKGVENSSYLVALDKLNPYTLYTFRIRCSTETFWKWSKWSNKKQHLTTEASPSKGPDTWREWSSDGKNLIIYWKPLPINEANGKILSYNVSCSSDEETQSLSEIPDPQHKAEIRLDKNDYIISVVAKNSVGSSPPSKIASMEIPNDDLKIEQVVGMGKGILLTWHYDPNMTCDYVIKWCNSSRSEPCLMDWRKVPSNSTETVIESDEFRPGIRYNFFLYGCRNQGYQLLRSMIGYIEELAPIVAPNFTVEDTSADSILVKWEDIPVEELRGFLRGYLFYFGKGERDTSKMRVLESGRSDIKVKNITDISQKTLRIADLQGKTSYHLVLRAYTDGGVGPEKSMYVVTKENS
T1 sequence (P40189 23-619): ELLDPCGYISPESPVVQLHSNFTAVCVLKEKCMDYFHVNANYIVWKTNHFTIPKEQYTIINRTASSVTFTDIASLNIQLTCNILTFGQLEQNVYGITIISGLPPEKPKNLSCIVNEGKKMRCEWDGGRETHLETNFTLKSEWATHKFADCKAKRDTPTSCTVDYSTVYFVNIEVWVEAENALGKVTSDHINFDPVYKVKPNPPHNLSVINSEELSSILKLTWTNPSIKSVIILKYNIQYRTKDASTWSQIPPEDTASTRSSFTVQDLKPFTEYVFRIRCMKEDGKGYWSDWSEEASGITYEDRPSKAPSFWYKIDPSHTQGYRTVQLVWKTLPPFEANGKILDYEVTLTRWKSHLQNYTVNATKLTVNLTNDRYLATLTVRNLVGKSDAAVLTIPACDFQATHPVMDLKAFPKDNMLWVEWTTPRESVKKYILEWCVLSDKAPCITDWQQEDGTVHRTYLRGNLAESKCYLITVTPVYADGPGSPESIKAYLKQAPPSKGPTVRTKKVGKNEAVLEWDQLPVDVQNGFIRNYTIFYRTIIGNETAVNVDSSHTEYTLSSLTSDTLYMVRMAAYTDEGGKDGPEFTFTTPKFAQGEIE
T1 sequence (P40223 627-837 partner limits assumed): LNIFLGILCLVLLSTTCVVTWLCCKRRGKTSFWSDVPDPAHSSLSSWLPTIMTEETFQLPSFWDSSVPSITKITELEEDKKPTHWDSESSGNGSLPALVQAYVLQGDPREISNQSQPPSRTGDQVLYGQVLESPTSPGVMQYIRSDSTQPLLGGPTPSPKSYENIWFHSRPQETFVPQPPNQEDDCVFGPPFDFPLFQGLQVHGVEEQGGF
Source text: Chimeric receptor DNAs were constructed by linking cDNA fragments encoding human LIF receptor (from the 1st to the 833rd amino acid residues; Gearing, D P. et al. […] EMBO J., 10, 2839-2848) and human gp130 (from the 1st to the 619th amino acid residues; Hibi, M. et al. (1990) Cell, 63, 1149-1157) with the transmembrane and intracellular domains (from the 602nd to the 813th amino acid residues; Fukunaga, R. et al. (1990) Cell 61, 341-350) of mouse G-CSF receptor, respectively. These constructs were inserted downstream of the HEF1α promoter of the mammalian expression vector pCV to construct chimeric receptors expression vectors, pCV-cLIFR and pCV-cgp130, respectively. pCV-cLIFR and pCV-cgp130 were linearized with Pvu I (Takara Shuzo), respectively, extracted with phenol and chloroform, and purified by ethanol precipitation. […]
(§1) The cells were washed twice with Media A, and were suspended in Media A to give a cell density of 5×10^4 cells/mL. […] After the culture, 10 μL/well WST-8 reagent (Cell Count Reagent SF; Nacalai Tesque) was added, and pre-reaction absorbance at a measurement wavelength of 450 nm and a control wavelength of 655 nm was measured using microplate reader (Model 3550, Bio Rad). The plate was incubated for two hours in a CO2 incubator (CO2 concentration, 5%), and post-reaction absorbance was measured as above. […]

[2] = Titer of human EPO and G-CSF prepared from recombinant CHO cells
[3] = test system: mixed culture of cell lines GFG, EPG, TPG and parental Ba/F3; test: Cytokine responses in mixed and individual cell cultures (Example 2); type: cell-based, mouse; settings: mixed culture of four cell lines (each 4×10^3 cells/well), similar in individual cultures, 72 hours, WST-8; listed as hEPO
Protocol: Mixed culture of the cell lines GFG, EPG, and TPG, which express human G-CSF, EPO, and TPO chimeric receptors, respectively, and their parental cell line Ba/F3 was conducted and their response to various cytokines was examined.
The cells were washed twice with RPMI1640 media containing 2% fetal bovine serum, and then were suspended in RPMI1640 containing 10% fetal bovine serum. The four cell lines were mixed by adjusting each of the cell lines to 4×10^4 cells/mL (16×10^4 cells/mL in total) for the mixed culture, and, for individual cultures, cells were prepared at 4×10^4 cells/mL. 100 μL each of the cells were independently seeded on a 96-well microtiter plate (flat bottom, Falcon). After adding 100 μL/well each of appropriately diluted cytokines, the cultures were cultured for 72 hours in a CO2 incubator (5% CO2 concentration). After the culture, 10 μL/well WST-8 reagent (Cell Count Reagent SF; Nacalai Tesque) was added, and pre-reaction absorbance at a measurement wavelength of 450 nm and a control wavelength of 655 nm was measured using a microplate reader (Model 3550, Bio Rad). The plate was incubated for two hours in a CO2 incubator (CO2 concentration, 5%), and post-reaction absorbance was measured as above. Data were graphed out taking the cytokine concentrations on the horizontal axis and the amount of changes in absorbance after 2-hour incubation on the vertical axis (FIGS. 18, 19, and 20).

[4] = target: T2, chimeric leptin receptor (human leptin receptor extracellular domain / mouse G-CSF receptor) in Ba/F3 cell line LPG (Homo sapiens, UniProt P48357); test: Growth response of chimeric leptin receptor-expressing Ba/F3 cell line LPG (WST-8); type: cell-based; settings: 72 hours culture, WST-8 absorbance
T2 construct: from the 1st to the 839th amino acid residues; expressed in transfected cells; host or cells: mouse Ba/F3 cells, clone LPG#51 = LPG
T2 sequence (P48357 22-839): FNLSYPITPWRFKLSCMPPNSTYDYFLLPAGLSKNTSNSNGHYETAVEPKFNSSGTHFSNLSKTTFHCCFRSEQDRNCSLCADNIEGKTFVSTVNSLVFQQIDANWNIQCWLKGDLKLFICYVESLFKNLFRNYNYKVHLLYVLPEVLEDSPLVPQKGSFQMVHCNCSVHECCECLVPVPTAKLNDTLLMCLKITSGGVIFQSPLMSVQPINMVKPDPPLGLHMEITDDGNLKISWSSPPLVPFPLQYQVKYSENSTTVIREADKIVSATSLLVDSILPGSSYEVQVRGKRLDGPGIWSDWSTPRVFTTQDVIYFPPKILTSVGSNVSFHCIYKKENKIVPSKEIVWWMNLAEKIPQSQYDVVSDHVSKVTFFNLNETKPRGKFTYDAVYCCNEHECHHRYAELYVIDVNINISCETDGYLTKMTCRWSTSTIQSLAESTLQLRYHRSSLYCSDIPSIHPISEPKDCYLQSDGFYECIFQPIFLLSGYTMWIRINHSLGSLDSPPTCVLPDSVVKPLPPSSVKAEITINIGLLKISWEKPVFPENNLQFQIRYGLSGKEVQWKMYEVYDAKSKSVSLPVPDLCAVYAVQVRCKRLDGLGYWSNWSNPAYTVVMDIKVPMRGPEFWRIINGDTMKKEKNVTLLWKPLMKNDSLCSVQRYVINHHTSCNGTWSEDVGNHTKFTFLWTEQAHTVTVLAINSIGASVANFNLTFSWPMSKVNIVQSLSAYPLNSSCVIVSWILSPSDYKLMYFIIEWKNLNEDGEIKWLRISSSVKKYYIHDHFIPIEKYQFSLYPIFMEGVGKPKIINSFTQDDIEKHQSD
Source text: A chimeric receptor cDNA was constructed by linking cDNA fragments encoding the extracellular domain (from the 1st to the 839th amino acid residues; Tartaglia, L A. et al. (1995) Cell, 83, 1263-1271) of human leptin receptor, and the transmembrane and intracellular domains (from the 602nd to the 813th amino acid residues; Fukunaga, R. et al. (1990) Cell 61, 341-350) of mouse G-CSF receptor. This cDNA was inserted downstream of the HEF1α promoter of the mammalian expression vector pCV to construct chimeric receptor expression vector pCV-cLepR. pCV-cLepR was linearized with Pvu I (Takara Shuzo), extracted with phenol and chloroform, and purified by ethanol precipitation. […]
as §1

- concentration at which an evident growth reaction was observed [1]: ≥ 0.4 ng/mL
Substance: human LIF: human leukemia inhibitory factor (Genzyme)

Substance: erythropoietin [human EPO]
- titer [2]: 270,000 IU/mg
- concentration where the response was observed to start [3]: 2 pg/mL

- concentration at which an evident growth reaction was observed [4]: ≥ 0.2 ng/mL
Substance: human leptin: human leptin (Genzyme)

— US7732133B2, “Screening methods for biologically active ligands” (Chugai Seiyaku Kabushiki Kaisha, priority 2000, dated 2010)
